In patent publication US20080220446A1, “Method for Detecting and/or Removing Protein and/or Peptide Comprising a Cross-Beta Structure From an Aqueous Solution Comprising a Protein” (priority 2005, published 2008):

Target: endostatin (EntreMed, Inc.) (UniProt P39060)
Experiment: SPR (Biacore), Fn F4-5-His6 immobilized, endostatin at 0-800 nM, maximum RU against concentration

Chain of endostatin (EntreMed, Inc.) (P39060 1572-1754): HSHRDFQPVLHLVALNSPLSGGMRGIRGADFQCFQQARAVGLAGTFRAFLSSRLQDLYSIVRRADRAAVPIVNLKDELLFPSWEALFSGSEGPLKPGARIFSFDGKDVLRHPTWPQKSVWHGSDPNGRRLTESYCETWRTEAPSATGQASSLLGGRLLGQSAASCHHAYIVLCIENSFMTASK

**Q.** How did the concentration of ligand that results in half maximum binding turn out when “Fn F4-5-His6 (fibronectin type I domains 4-5, expressed in S. cerevisiae) (from UniProt P02751 182-276)” was run?
**A.** Its concentration of ligand that results in half maximum binding is 800 nM.
